Results from paper PMC7078158, “Enzymes Catalyzing Crotonyl-CoA Conversion to Acetoacetyl-CoA During the Autotrophic CO2 Fixation in Metallosphaera sedula” (Frontiers in Microbiology, 2020).

B1: crotonyl-CoA hydratase Msed_0384 (Metallosphaera sedula DSM 5348) (protein)
chain: MRTVIVEKGDVGIIRLNRPEKLNAINMEMVYDLVEALNELKSQVRAVIITGNGKAFSAGADVKEMLDMSIEQVTREGHMPLWDALRGFRKPVIAALNGVAAGGGLELAMACDMIVAGESARLGQPEINLGIIPGAGGTQRLTRTVGKYRAMEMVLTGRLITAWDAYRMGLVTKVVPDEALIPEAMRLAREITGKSGFAVELGKEAVNRALDTLLQQGLDLERRNFYVTLVSQDGREGMKAFLEKRKPEWKT
notes: full-length, N-terminal His10-tag (pET16b), recombinant in E. coli Rosetta 2 (DE3)
B2: crotonyl-CoA hydratase Msed_0336 (Metallosphaera sedula DSM 5348) (protein)
chain: MKVLYEERDGISWITFNRPEKLNALDAESWKLLGDHVRRGDSSDSRAIVITGNGRAFSSGDDIGSMTSLNDQREAEDFFNALLYAVDGLIYTNKPVIGAVNGLAYGGGCEILLFMDVVISTRSARFSIPEGRLGLIPPMALSVGYNSIGRSVAWLAITGEEIDAMRAKEIGLVDIVGDDLNLELEKVMARISSMDQGSIKVIKAWLRKSREPIREAIRELSFMSLSTQAKERMKRFLSR
notes: as for B1

Experiments:
Type in all cases: biochemical, Metallosphaera sedula
[1] = substrate: C/C=C/C(=O)SCCNC(=O)CCNC(=O)[C@H](O)C(C)(C)COP(=O)(O)OP(=O)(O)OC[C@H]1O[C@@H](n2cnc3c(N)ncnc32)[C@H](O)[C@@H]1OP(=O)(O)O; test: UHPLC, 3-hydroxybutyryl-CoA formation; settings: hydratase reaction, 100 mM Tris-HCl pH 7.8, 65 °C, apparent Km
Text: UHPLC, 3-hydroxybutyryl-CoA formation on crotonyl-CoA hydratase Msed_0384

[2] = substrate: CCCCC/C=C/C(=O)SCCNC(=O)CCNC(=O)[C@H](O)C(C)(C)COP(=O)(O)OP(=O)(O)OC[C@H]1O[C@@H](n2cnc3c(N)ncnc32)[C@H](O)[C@@H]1OP(=O)(O)O; test: UHPLC, 3-hydroxyoctanoyl-CoA formation; settings: hydratase reaction, 100 mM Tris-HCl pH 7.8, 65 °C, apparent Km
Text: UHPLC, 3-hydroxyoctanoyl-CoA formation on crotonyl-CoA hydratase Msed_0384

[3] = substrate: C[C@H](O)CC(=O)SCCNC(=O)CCNC(=O)[C@H](O)C(C)(C)COP(=O)(O)OP(=O)(O)OC[C@H]1O[C@@H](n2cnc3c(N)ncnc32)[C@H](O)[C@@H]1OP(=O)(O)O; test: Ccr-coupled dehydratase assay, UHPLC; settings: dehydratase reaction, 100 mM Tris-HCl pH 7.8, 42 °C, 1 mM NADPH and NaHCO3 for coupling enzyme, apparent Km
Text: Ccr-coupled dehydratase assay, UHPLC on crotonyl-CoA hydratase Msed_0384

[4] = substrate: C=CC(=O)SCCNC(=O)CCNC(=O)[C@H](O)C(C)(C)COP(=O)(O)OP(=O)(O)OC[C@H]1O[C@@H](n2cnc3c(N)ncnc32)[C@H](O)[C@@H]1OP(=O)(O)O; test: UHPLC, 3-hydroxypropionyl-CoA formation; settings: hydratase reaction, 100 mM Tris-HCl pH 7.8, 65 °C, apparent Km
Text: UHPLC, 3-hydroxypropionyl-CoA formation on crotonyl-CoA hydratase Msed_0384

[5] = substrate: C=C(C)C(=O)SCCNC(=O)CCNC(=O)[C@H](O)C(C)(C)COP(=O)(O)OP(=O)(O)OC[C@H]1O[C@@H](n2cnc3c(N)ncnc32)[C@H](O)[C@@H]1OP(=O)(O)O; test: UHPLC, 3-hydroxy-2-methylpropionyl-CoA formation; settings: hydratase reaction, 100 mM Tris-HCl pH 7.8, 65 °C, apparent Km
Text: UHPLC, 3-hydroxy-2-methylpropionyl-CoA formation on crotonyl-CoA hydratase Msed_0384

[6] = substrate: C/C=C/C(=O)SCCNC(=O)CCNC(=O)[C@H](O)C(C)(C)COP(=O)(O)OP(=O)(O)OC[C@H]1O[C@@H](n2cnc3c(N)ncnc32)[C@H](O)[C@@H]1OP(=O)(O)O; test: UHPLC, 3-hydroxybutyryl-CoA formation; settings: hydratase reaction, 100 mM Tris-HCl pH 7.8, 65 °C, apparent Km; remark: listed apart in the source
Text: UHPLC, 3-hydroxybutyryl-CoA formation on crotonyl-CoA hydratase Msed_0336

[7] = substrate: C=C(C)C(=O)SCCNC(=O)CCNC(=O)[C@H](O)C(C)(C)COP(=O)(O)OP(=O)(O)OC[C@H]1O[C@@H](n2cnc3c(N)ncnc32)[C@H](O)[C@@H]1OP(=O)(O)O; test: UHPLC, 3-hydroxy-2-methylpropionyl-CoA formation; settings: hydratase reaction, 100 mM Tris-HCl pH 7.8, 65 °C, apparent Km; remark: listed apart in the source
Text: UHPLC, 3-hydroxy-2-methylpropionyl-CoA formation on crotonyl-CoA hydratase Msed_0336

[8] = substrate: C[C@H](O)CC(=O)SCCNC(=O)CCNC(=O)[C@H](O)C(C)(C)COP(=O)(O)OP(=O)(O)OC[C@H]1O[C@@H](n2cnc3c(N)ncnc32)[C@H](O)[C@@H]1OP(=O)(O)O; test: Ccr-coupled dehydratase assay, UHPLC; settings: dehydratase reaction, 100 mM Tris-HCl pH 7.8, 42 °C, 1 mM NADPH and NaHCO3 for coupling enzyme, apparent Km; remark: listed apart in the source
Text: Ccr-coupled dehydratase assay, UHPLC on crotonyl-CoA hydratase Msed_0336

[9] = substrate: C=CC(=O)SCCNC(=O)CCNC(=O)[C@H](O)C(C)(C)COP(=O)(O)OP(=O)(O)OC[C@H]1O[C@@H](n2cnc3c(N)ncnc32)[C@H](O)[C@@H]1OP(=O)(O)O; test: UHPLC, 3-hydroxypropionyl-CoA formation; settings: hydratase reaction, 100 mM Tris-HCl pH 7.8, 65 °C, apparent Km; remark: listed apart in the source
Text: UHPLC, 3-hydroxypropionyl-CoA formation on crotonyl-CoA hydratase Msed_0336

[10] = substrate: CCCCC/C=C/C(=O)SCCNC(=O)CCNC(=O)[C@H](O)C(C)(C)COP(=O)(O)OP(=O)(O)OC[C@H]1O[C@@H](n2cnc3c(N)ncnc32)[C@H](O)[C@@H]1OP(=O)(O)O; test: UHPLC, 3-hydroxyoctanoyl-CoA formation; settings: hydratase reaction, 100 mM Tris-HCl pH 7.8, 65 °C, apparent Km; remark: listed apart in the source
Text: UHPLC, 3-hydroxyoctanoyl-CoA formation on crotonyl-CoA hydratase Msed_0336

| Protein | Km [1] | Km [2] | Km [3] | Km [4] | Km [5] | Km [6] | Km [7] | Km [8] | Km [9] | Km [10] |
| --- | --- | --- | --- | --- | --- | --- | --- | --- | --- | --- |
| B1 | 0.22 ± 0.02 mM | 0.5 ± 0.06 mM | 0.05 ± 0.01 mM | 0.18 ± 0.03 mM | 0.07 ± 0.03 mM |  |  |  |  |  |
| B2 |  |  |  |  |  | 0.08 ± 0.01 mM | 0.29 ± 0.05 mM | 0.07 ± 0.02 mM | 0.07 ± 0.005 mM | 0.09 ± 0.01 mM |
